According to paper PMC2737543, “The crystal structure of Haloferax volcanii proliferating cell nuclear antigen reveals unique surface charge characteristics due to halophilic adaptation” (BMC Structural Biology, 2009):

Target: the molecule itself
Experiment: SEC; 10/300 Superdex 200, 50 mM HEPES pH 7.0, KCl 0.2 to 3.0 M (and equivalent NaCl); protein incubated 4 hours in the buffer before loading; 0.5 ml/min; calibrated with molecular weight standards

B1: Haloferax volcanii proliferating cell nuclear antigen (natural protein)
chain: MFKAIVSAATLRDALDSVSVLVDECKIRLNEESLSIRAVDPANVGMVDLTLDAAAFESYEAHGGVIGVNLSRLEEVAGMAGAGDLIHLTLDEETRKLNIRIDGLSYTLALIDPDSIRQEPDIPDLDLAANIVLEGTHLDRGIKAADMVSDHIRLRVDGAEETFHIEAEGDTDDVDLSLPPADLISIEAGAADSLFSLDYLKDMNKAIPTDAEVTVELGEEFPVKLHYQIAEGMGTITYMLAPRIQSD
notes: Homotrimer; No tag is mentioned; In the model the N-terminal methionine is missing and the C-terminus is not modelled from residue 244; also called HvPCNA; H. volcanii PCNA; source: E. coli B834 (DE3), purified (ammonium sulphate precipitation, Superdex 200, Q-sepharose FF)
stoichiometry N: 3
